Among the data in the Human Domainome abundance scans (Beltran et al. 2025) are abundance fitness values, retold here.

± gives the uncertainty stated by the source.

B1: POU domain, class 5, transcription factor 1, residues 134 to 212; numbered along this chain, Q01860 (parent)
chain: EESQDIKALQKELEQFAKLLKQKRITLGYTQADVGLTLGVLFGKVFSQTTICRFEALQLSFKNMCKLRPLLQKWVEEAD

This data set covers variants of B1. The experiment in a line: abundance fitness (aPCA) (normalised: wild type 0, dead -1); higher = more abundant; growth selection in yeast, the domain comes from the species named. The following applies: Homo sapiens.
GESQDIKALQKELEQFAKLLKQKRITLGYTQADVGLTLGVLFGKVFSQTTICRFEALQLSFKNMCKLRPLLQKWVEEAD: the abundance fitness amounted to 0.053 ± 0.073.

Turning to WESQDIKALQKELEQFAKLLKQKRITLGYTQADVGLTLGVLFGKVFSQTTICRFEALQLSFKNMCKLRPLLQKWVEEAD, the abundance fitness was -0.244 ± 0.33.

With MESQDIKALQKELEQFAKLLKQKRITLGYTQADVGLTLGVLFGKVFSQTTICRFEALQLSFKNMCKLRPLLQKWVEEAD, the abundance fitness was 0.273 ± 0.15.

As to VESQDIKALQKELEQFAKLLKQKRITLGYTQADVGLTLGVLFGKVFSQTTICRFEALQLSFKNMCKLRPLLQKWVEEAD, the abundance fitness is -0.45 ± 0.16.

For KESQDIKALQKELEQFAKLLKQKRITLGYTQADVGLTLGVLFGKVFSQTTICRFEALQLSFKNMCKLRPLLQKWVEEAD, the abundance fitness was -0.034 ± 0.24.

As to SESQDIKALQKELEQFAKLLKQKRITLGYTQADVGLTLGVLFGKVFSQTTICRFEALQLSFKNMCKLRPLLQKWVEEAD, the abundance fitness was -0.58 ± 0.45.

Take RESQDIKALQKELEQFAKLLKQKRITLGYTQADVGLTLGVLFGKVFSQTTICRFEALQLSFKNMCKLRPLLQKWVEEAD: the abundance fitness worked out at 0.064 ± 0.14.

As to QESQDIKALQKELEQFAKLLKQKRITLGYTQADVGLTLGVLFGKVFSQTTICRFEALQLSFKNMCKLRPLLQKWVEEAD, the abundance fitness came out at 0.066 ± 0.31.

As for LESQDIKALQKELEQFAKLLKQKRITLGYTQADVGLTLGVLFGKVFSQTTICRFEALQLSFKNMCKLRPLLQKWVEEAD, the abundance fitness is -0.135 ± 0.23.

As to EGSQDIKALQKELEQFAKLLKQKRITLGYTQADVGLTLGVLFGKVFSQTTICRFEALQLSFKNMCKLRPLLQKWVEEAD, the abundance fitness worked out at 0.211 ± 0.26.

Take EESIDIKALQKELEQFAKLLKQKRITLGYTQADVGLTLGVLFGKVFSQTTICRFEALQLSFKNMCKLRPLLQKWVEEAD: the abundance fitness is -0.309 ± 0.24.

As to EESADIKALQKELEQFAKLLKQKRITLGYTQADVGLTLGVLFGKVFSQTTICRFEALQLSFKNMCKLRPLLQKWVEEAD, the abundance fitness is -0.097 ± 0.081.

Take EESTDIKALQKELEQFAKLLKQKRITLGYTQADVGLTLGVLFGKVFSQTTICRFEALQLSFKNMCKLRPLLQKWVEEAD: the abundance fitness turned out to be 0.005 ± 0.11.

For the variant EESCDIKALQKELEQFAKLLKQKRITLGYTQADVGLTLGVLFGKVFSQTTICRFEALQLSFKNMCKLRPLLQKWVEEAD, the abundance fitness was -0.211 ± 0.22.

As to EESDDIKALQKELEQFAKLLKQKRITLGYTQADVGLTLGVLFGKVFSQTTICRFEALQLSFKNMCKLRPLLQKWVEEAD, the abundance fitness came out at 0.046 ± 0.14.

On to EESLDIKALQKELEQFAKLLKQKRITLGYTQADVGLTLGVLFGKVFSQTTICRFEALQLSFKNMCKLRPLLQKWVEEAD, for which the abundance fitness was -0.067 ± 0.09.

With EESSDIKALQKELEQFAKLLKQKRITLGYTQADVGLTLGVLFGKVFSQTTICRFEALQLSFKNMCKLRPLLQKWVEEAD, the abundance fitness is -0.258 ± 0.13.

With EESNDIKALQKELEQFAKLLKQKRITLGYTQADVGLTLGVLFGKVFSQTTICRFEALQLSFKNMCKLRPLLQKWVEEAD, the abundance fitness was -0.253 ± 0.32.

For the variant EESFDIKALQKELEQFAKLLKQKRITLGYTQADVGLTLGVLFGKVFSQTTICRFEALQLSFKNMCKLRPLLQKWVEEAD, the abundance fitness is -0.059 ± 0.24.

EESKDIKALQKELEQFAKLLKQKRITLGYTQADVGLTLGVLFGKVFSQTTICRFEALQLSFKNMCKLRPLLQKWVEEAD: the abundance fitness is -0.011 ± 0.16.

On to EESHDIKALQKELEQFAKLLKQKRITLGYTQADVGLTLGVLFGKVFSQTTICRFEALQLSFKNMCKLRPLLQKWVEEAD, for which the abundance fitness was -0.051 ± 0.4.

For EESGDIKALQKELEQFAKLLKQKRITLGYTQADVGLTLGVLFGKVFSQTTICRFEALQLSFKNMCKLRPLLQKWVEEAD, the abundance fitness is -0.064 ± 0.07.

With EESEDIKALQKELEQFAKLLKQKRITLGYTQADVGLTLGVLFGKVFSQTTICRFEALQLSFKNMCKLRPLLQKWVEEAD, the abundance fitness was -0.13 ± 0.1.

Turning to EESYDIKALQKELEQFAKLLKQKRITLGYTQADVGLTLGVLFGKVFSQTTICRFEALQLSFKNMCKLRPLLQKWVEEAD, the abundance fitness came to 0.291 ± 0.19.

For the variant EESPDIKALQKELEQFAKLLKQKRITLGYTQADVGLTLGVLFGKVFSQTTICRFEALQLSFKNMCKLRPLLQKWVEEAD, the abundance fitness is -0.135 ± 0.12.

Regarding EESMDIKALQKELEQFAKLLKQKRITLGYTQADVGLTLGVLFGKVFSQTTICRFEALQLSFKNMCKLRPLLQKWVEEAD, the abundance fitness is -0.118 ± 0.18.

Turning to EESVDIKALQKELEQFAKLLKQKRITLGYTQADVGLTLGVLFGKVFSQTTICRFEALQLSFKNMCKLRPLLQKWVEEAD, the abundance fitness is -0.061 ± 0.088.

As for EESQCIKALQKELEQFAKLLKQKRITLGYTQADVGLTLGVLFGKVFSQTTICRFEALQLSFKNMCKLRPLLQKWVEEAD, the abundance fitness came to 0.057 ± 0.35.

With EESQAIKALQKELEQFAKLLKQKRITLGYTQADVGLTLGVLFGKVFSQTTICRFEALQLSFKNMCKLRPLLQKWVEEAD, the abundance fitness is -0.126 ± 0.21.

For EESQGIKALQKELEQFAKLLKQKRITLGYTQADVGLTLGVLFGKVFSQTTICRFEALQLSFKNMCKLRPLLQKWVEEAD, the abundance fitness was -0.331 ± 0.2.

For the variant EESQEIKALQKELEQFAKLLKQKRITLGYTQADVGLTLGVLFGKVFSQTTICRFEALQLSFKNMCKLRPLLQKWVEEAD, the abundance fitness is -0.343 ± 0.42.

On to EEGQDIKALQKELEQFAKLLKQKRITLGYTQADVGLTLGVLFGKVFSQTTICRFEALQLSFKNMCKLRPLLQKWVEEAD, for which the abundance fitness was 0.131 ± 0.17.

On to EEVQDIKALQKELEQFAKLLKQKRITLGYTQADVGLTLGVLFGKVFSQTTICRFEALQLSFKNMCKLRPLLQKWVEEAD, for which the abundance fitness worked out at 0.323 ± 0.24.

Regarding EELQDIKALQKELEQFAKLLKQKRITLGYTQADVGLTLGVLFGKVFSQTTICRFEALQLSFKNMCKLRPLLQKWVEEAD, the abundance fitness stood at 0.163 ± 0.38.

Take EEFQDIKALQKELEQFAKLLKQKRITLGYTQADVGLTLGVLFGKVFSQTTICRFEALQLSFKNMCKLRPLLQKWVEEAD: the abundance fitness was -0.082 ± 0.27.
